The nature of the data set: amyloid nucleation score (Sup35N fusion, yeast selection) (log enrichment); library NNK1; higher = more nucleation; inactive = no reads after selection. A digest of the protocol: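 Peptides of 20 random codons, each fused to Sup35N, were expressed in psi-negative yeast. Cells were induced with 100 μM copper sulfate for 24 hours and grown 7 days at 30°C on medium lacking adenine and uracil, and plasmid inserts before and after selection were Illumina-sequenced. Nucleation scores are DiMSum log enrichments of output over input reads, centred on the mode score of non-aggregating sequences, and sequences under 100 input reads were excluded.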

± gives the uncertainty stated by the source.

As for DYFRYRIFKKSYHKPAVICI, the amyloid nucleation score was -0.415 ± 0.52.

Take TTRMRRRY: the amyloid nucleation score came out at 1.89 ± 0.56.

For the substance NNRIRRGGSVSVVMTVCDMD, the amyloid nucleation score was found to be 1.81 ± 0.34.

Take SMMYKVSFGGGVFVLKLLVK: the amyloid nucleation score is 0.266 ± 0.3.

On to GLVFTLWSASRCFFLRKKLW, for which the amyloid nucleation score is -0.083 ± 0.83.

FYRSLVVNM registered an amyloid nucleation score of -0.081 ± 0.96.

Consider SKLIHYTSFLDYASSGEWKW, for which the amyloid nucleation score came to 2.81 ± 0.17.

VSVFCTSFWASTKLYWTVSE: the amyloid nucleation score was -0.351 ± 0.6.

As to LVPVIKEQFCCHVWVMV, the amyloid nucleation score result was “inactive”.

With HPSVGYSSLVV, the amyloid nucleation score worked out at 0.841 ± 0.62.

HCSFSWGYRWLGWTTKSGNM registered an amyloid nucleation score of 1.31 ± 0.4.

The substance VWIPYCLNFQSCNNHKLSLA registered an amyloid nucleation score of -1.13 ± 1.

In turn, EMNLSLSVCALFRFIT registered an amyloid nucleation score of -0.56 ± 0.43.

Substance KIKLMF yielded an amyloid nucleation score of -0.416 ± 1.6.

On to GMFNLLH, for which the amyloid nucleation score entry was “inactive”.

Substance TFIITSRFLYSDVAT registered an amyloid nucleation score of -1.33 ± 0.45.

In turn, MLIRWNSYTGHIGWIFSGKA had an amyloid nucleation score of 0.94 ± 0.19.

The substance HSLRQKVPM yielded an amyloid nucleation score of 0.227 ± 0.3.

On to VVGVYYSCIYVGAYNLGSIP, for which the amyloid nucleation score is 4.77 ± 0.1.

MIMLIWVINSLTYGLEGLTA showed an amyloid nucleation score of 0.919 ± 0.39.

FGEYSCGRREMPYCFLDYYL had an amyloid nucleation score of 0.356 ± 0.41.

On to DNTHSSFIHFETGKKYYA, for which the amyloid nucleation score turned out to be 0.319 ± 0.78.

For the substance PFVYGLCESFPFGCQYGWGC, the amyloid nucleation score entry was “inactive”.

For the substance YYYHVVWAQ, the amyloid nucleation score result was “inactive”.

SDFQRE gave an amyloid nucleation score of 3.91 ± 0.099.

As to VRRGFGPIITLYNFIISIWF, the amyloid nucleation score was 0.895 ± 0.79.

Substance HARIS returned an amyloid nucleation score of -0.313 ± 0.79.

Consider RGDAIMAWGSVVRYIHYILY, for which the amyloid nucleation score is 1.51 ± 0.5.

CSKRTTYYFPWFICELTRLV gave an amyloid nucleation score of -0.195 ± 0.6.

As to QSNSTYYGGSSRSGEKFPLG, the amyloid nucleation score turned out to be 3.83 ± 0.083.

Consider ANLKISSALDVVRHRRKYQY, for which the amyloid nucleation score was 0.014 ± 0.54.

In turn, SLAWSRMRCKFWSVSPSAFP displayed an amyloid nucleation score of -0.352 ± 0.49.

TVTDYKTYASLLFGTKTYAI showed an amyloid nucleation score of 2.17 ± 0.47.

The substance VASYFGLVRNSNLDLYLHCR gave an amyloid nucleation score of -0.131 ± 0.23.

Turning to HSRLLASYS, the amyloid nucleation score worked out at 1.34 ± 0.43.

As to SSVVL, the amyloid nucleation score was 0.531 ± 0.44.

YFGDAGAFGFFSGLG: the amyloid nucleation score amounted to 0.192 ± 0.61.

LVVLL came in with an amyloid nucleation score of -0.108 ± 0.71.

As for SNNYLLCGIDGEVL, the amyloid nucleation score was 1.07 ± 0.66.

For the substance MEAWRHSTSACSDGA, the amyloid nucleation score is -0.245 ± 0.39.

The substance LAGIVCEWWFGWVGDVQLAF had an amyloid nucleation score of -0.604 ± 0.85.

FNLITSD gave an amyloid nucleation score of 0.074 ± 0.52.

Substance LWFAHNS came in with an amyloid nucleation score of 0.462 ± 0.59.

Regarding GKLSSLLMFCRNSLFVGFLG, the amyloid nucleation score was -0.086 ± 0.35.

As to VYAYVSHLLIYVFSGRV, the amyloid nucleation score entry was “inactive”.

In turn, CYMYFWNRVDFT displayed an amyloid nucleation score of 0.581 ± 0.17.

Consider LATNFCDTMRYVNGFRIAWC, for which the amyloid nucleation score stood at 0.647 ± 0.66.

The substance TDGIGYLGTWMWLWRGDGVR came in with an amyloid nucleation score of 1.78 ± 0.53.

YLINRRIYVPVYLLALVISL registered an amyloid nucleation score of -0.189 ± 0.4.

ILSFSSRPVVDNHSTTW gave an amyloid nucleation score of 0.682 ± 0.51.

Take TRTKSGFSLYVRR: the amyloid nucleation score amounted to 1.1 ± 0.71.

With LGSMSTWVDRLRVANQVVVC, the amyloid nucleation score worked out at 0.785 ± 0.77.

In turn, FAWEVKTDYRWYNPWLGRAC returned an amyloid nucleation score of -0.838 ± 2.1.

For THFRMGKSFVICLGLASYPL, the amyloid nucleation score was determined as 0.374 ± 0.9.

In turn, IYGDGNCIIFLMGQRP returned an amyloid nucleation score of 6.38 ± 0.085.

SCMPHYEFMWRGAQAPWGLD had an amyloid nucleation score of 0.183 ± 0.5.

On to CVSCVSGILFEMCPSSFPNQ, for which the amyloid nucleation score is -0.578 ± 0.9.

In turn, NRSVRGVFLEGNVRFCWLRE showed an amyloid nucleation score of 1.21 ± 0.85.

The substance RISNRCSCSCNFDQGGVRQP displayed an amyloid nucleation score of 0.394 ± 1.1.

In the case of FGLYVYLPEGRHACVALRTV, the amyloid nucleation score is -0.89 ± 0.88.

For the substance LICVGCSCYSLKLSYNSSGL, the amyloid nucleation score turned out to be 5.79 ± 0.058.

Consider LSVRDVLYGHVRWVGWGGVK, for which the amyloid nucleation score was found to be 0.886 ± 0.64.

DCKAYSIRSNV: the amyloid nucleation score was determined as 0.705 ± 0.36.

In turn, CCIMSRIGTCLWVEWRWCRG came in with an amyloid nucleation score of 0.243 ± 0.39.

With CSDCARIGLMSRCGDETW, the amyloid nucleation score amounted to 0.132 ± 0.28.

DRRKAPGLMNAMD gave an amyloid nucleation score of 0.737 ± 0.97.

In the case of MKIGIGVFRDREGNSGWL, the amyloid nucleation score was -0.741 ± 1.4.

In turn, ELKSAFCWRARLG showed an amyloid nucleation score of 0.197 ± 0.49.

FHRNHRINNRMSMAYSC gave an amyloid nucleation score of 0.059 ± 0.9.

In turn, VPLRTWLITWLGYNSHNWLC yielded an amyloid nucleation score of -0.302 ± 0.76.

For LPTVDMIWIRGFGFQELSWC, the amyloid nucleation score result is “inactive”.

Regarding IVNVSCITNVDGGSLADSAV, the amyloid nucleation score was found to be 2.48 ± 0.25.

In turn, DSYILRGNSVLGGGTFSVIR came in with an amyloid nucleation score of 0.062 ± 0.53.

Substance VLFAR showed an amyloid nucleation score of 0.566 ± 0.48.

The substance LNRRMNRCCTWLNMCADFFA came in with an amyloid nucleation score of 0.865 ± 0.75.

On to GVTVKGASS, for which the amyloid nucleation score is -0.734 ± 0.66.

The substance KILRYSTTGSSELEWWNMRS gave an amyloid nucleation score of 0.069 ± 0.49.

The substance YRCGECNSSVMCMGLRCLWM gave an amyloid nucleation score of 5.87 ± 0.059.

The substance WRFMRFSSGRFNIGEYI had an amyloid nucleation score of -0.431 ± 1.4.

VTLSLMCWNFALRFVSLGRS returned an amyloid nucleation score of 4.02 ± 0.071.

Consider RYLLKLFRIVGFGVVFMMSK, for which the amyloid nucleation score is -0.511 ± 0.34.

As to SVNHCHCL, the amyloid nucleation score was 0.597 ± 0.3.

As for KETSGYRFYRMANLP, the amyloid nucleation score was -0.21 ± 1.2.

Take QRQNVYVGGYIANMVHGSGC: the amyloid nucleation score is 1.27 ± 0.58.

In turn, GFRFEMSRQIHKWQSSCLLY had an amyloid nucleation score of 0.489 ± 0.6.

The substance DYTDMYTC gave an amyloid nucleation score of 0.571 ± 0.5.

Consider ERIIRKAC, for which the amyloid nucleation score was 0.338 ± 1.4.

As to KEYGVSL, the amyloid nucleation score is -0.93 ± 0.55.

GNDGENLMSWTIVWNFIVG registered an amyloid nucleation score of 4.33 ± 0.062.

LVFVSFIW registered an amyloid nucleation score of 0.942 ± 0.17.

For DSRVLSDYLSSYLSLKYLLV, the amyloid nucleation score is -0.031 ± 0.62.

Turning to NTKTNGTSIGNSTVVLHLIA, the amyloid nucleation score amounted to 6.409 ± 0.057.

Substance NGEILSTLDDVTMLRIRTTC showed an amyloid nucleation score of 0.071 ± 0.41.

Regarding VAASFCYIYRRYPSLFLGSR, the amyloid nucleation score worked out at 0.422 ± 0.53.

Take VKRLTRAVFCSFKSRVARSS: the amyloid nucleation score stood at 0.238 ± 0.58.

SGSWNMCNHVRVNCYAIDKV: the amyloid nucleation score came to 0.167 ± 0.3.

The substance FGVSVLCSEWGTPRFVCWVN had an amyloid nucleation score of -0.6 ± 0.43.

In the case of ICIREPTNESLAQLSDGVIR, the amyloid nucleation score amounted to 2.06 ± 0.6.

In turn, HYVGSLMVSW registered an amyloid nucleation score of 0.188 ± 0.81.

The substance IVMVVMSSFGINEHPPDNQN showed an amyloid nucleation score of 1.35 ± 0.27.

For the substance RWEFGLRHGKSVKWSIPSLY, the amyloid nucleation score was -0.085 ± 0.95.

Take FVVGSRFMKIHVSGGDLGFF: the amyloid nucleation score was -0.144 ± 0.39.

As to PLRASRTMTSGKLQPNLRRK, the amyloid nucleation score was 0.035 ± 0.76.

Turning to YYLQLIYMHKNRMLISCVCC, the amyloid nucleation score result is “inactive”.

Turning to FLMGTFDCCTVSVLFFAGK, the amyloid nucleation score worked out at 5.44 ± 0.055.

MFRALVCITVPILHKATNM returned an amyloid nucleation score of -0.689 ± 0.81.

Regarding GVNFFGCHCVHN, the amyloid nucleation score is -0.113 ± 0.41.

In the case of LILKYAVGRRQARVVKRNSR, the amyloid nucleation score is -0.575 ± 1.4.

ECGYFRLVSGERYTPVSSMR: the amyloid nucleation score was -0.139 ± 0.37.

The substance MSAVTGYECFRSLLV displayed an amyloid nucleation score of -0.055 ± 0.35.

In turn, KEILVGLPMGGVRGCGSSSG returned an amyloid nucleation score of 0.505 ± 1.2.

For the substance NICVFNEFKVYNAYTVYWGW, the amyloid nucleation score is 5.801 ± 0.054.

The substance TSVHDRQELRDRLV yielded an amyloid nucleation score of 0.69 ± 0.32.

With GYRGLYY, the amyloid nucleation score was 1.38 ± 0.6.

Turning to IIITFLCNYFQGWNCLLVHF, the amyloid nucleation score was found to be 2.35 ± 0.1.

As to RTRAGKYMYVSSQPTCSILI, the amyloid nucleation score was found to be 0.312 ± 0.56.

Substance NLFCRRMSSDWALKSELSNH displayed an amyloid nucleation score of 0.708 ± 0.36.

In turn, FRVMNRGAFYMRFKLG displayed an amyloid nucleation score of 1.04 ± 0.67.

GTQMVLFDY returned an amyloid nucleation score of 1.12 ± 0.58.

IYGGYEK had an amyloid nucleation score of 0.626 ± 0.84.

Substance YYNNC came in with an amyloid nucleation score of 0.501 ± 0.39.

As to GLCTTCF, the amyloid nucleation score stood at 0.126 ± 0.64.

Substance LLNSFPSNCQVKDMELQGME showed an amyloid nucleation score of -0.176 ± 0.93.

Take TSASYRADVWDDGNVLYRLW: the amyloid nucleation score result was “inactive”.

The substance GPIRDKSELAYMLPFEVMYT showed an amyloid nucleation score of 0.565 ± 0.67.

In the case of FRSLFYVFHYLECFYL, the amyloid nucleation score came out at 3.52 ± 0.12.

As to LITWCIVVAWCIIVTREA, the amyloid nucleation score was 2.84 ± 0.12.

On to MDRFRHNLILICLFLPLILV, for which the amyloid nucleation score was -0.364 ± 0.75.

As to PMQNSTPLFYSNAWSE, the amyloid nucleation score is -0.096 ± 1.1.

With AKLMGCYMQRSICITRVPFL, the amyloid nucleation score was determined as 0.702 ± 0.51.

In the case of VVMRPIFYGNSWLVRPLRNM, the amyloid nucleation score is -0.272 ± 0.45.

Turning to NQMGRRQRVLRSSDSRPTVL, the amyloid nucleation score is -0.114 ± 0.74.

Take QMVGESDECRCSLYSGQWKG: the amyloid nucleation score was -0.186 ± 0.42.

In the case of VCTNRYGPCSPS, the amyloid nucleation score is 4.26 ± 0.09.

In turn, RWYVFWQSMGCVRSGVWVKG came in with an amyloid nucleation score of 0.195 ± 0.31.

GALGWWSSFVCEEAGKLTLR: the amyloid nucleation score was 0.792 ± 0.48.

In turn, SYLDLRLAVCHCNGA gave an amyloid nucleation score of 5.38 ± 0.055.

RLWYGRSPWELVTIRSQARG: the amyloid nucleation score came out at 0.14 ± 0.31.

Substance SCFPLLRQFAGWLSWSRT came in with an amyloid nucleation score of 2.28 ± 0.18.

With ITSRVQFRETHTYIMYLEAW, the amyloid nucleation score worked out at 0.138 ± 0.43.

For the origin of these results see the supplement of paper PMC12042874.
